Assay results: FireProtDB (doi:10.1021/bi801431x)
Several values for one entry are separate records, joined by “and”; a condition that tells them apart may be missing. Equal entries are not always repeated.

Conditions: Escherichia coli (strain K12); pH 7.5; 25 °C; Urea; Fluorescence; Potassium phosphate 20 mM; reversible: Yes; whole UniProt chain shown

B1: Aspartate aminotransferase wild type, P00509 (protein)
chain: MFENITAAPADPILGLADLFRADERPGKINLGIGVYKDETGKTPVLTSVKKAEQYLLENETTKNYLGIDGIPEFGRCTQELLFGKGSALINDKRARTAQTPGGTGALRVAADFLAKNTSVKRVWVSNPSWPNHKSVFNSAGLEVREYAYYDAENHTLDFDALINSLNEAQAGDVVLFHGCCHNPTGIDPTLEQWQTLAQLSVEKGWLPLFDFAYQGFARGLEEDAEGLRAFAAMHKELIVASSYSKNFGLYNERVGACTLVAADSETVDRAFSQMKAAIRANYSNPPAHGASVVATILSNDALRAIWEQELTDMRQRIQRMRQLFVNTLQEKGANRDFSFIIKQNGMFSFSGLTKEQVLRLREEFGVYAVASGRVNVAGMTPDNMAPLCEAIVAVL
**Q.** Which “denaturant midpoint (higher = more stable)” value does the source give for B1 here?
**A.** 3.89 M and 5.02 M
